A short description of data set [1]: Nonenzymatic hydrolysis of oxycodone ester prodrugs to oxycodone in buffered solution (HPLC). The class given is physicochemical. The following applies: pH 7, 37° C.
Data set [2] concerns the target T1, μ (rat) opioid receptor (Rattus norvegicus, UniProt P33535).
T1 construct: expressed in transfected cells; host or cells: C6 rat glioma cells (membranes)
In words: Inhibition of radio labeled ligand binding to membranes from C6 rat glioma cells expressing recombinant μ opioid receptor. The conditions noted are these: in words.
Procedure: (§1) Opioid-agonist activity was evaluated from the ability of the test article to stimulate [^35S]-GTP's binding.

For data set [3], the target named is T1, μ (rat) opioid receptor. In words: Opioid-agonist activity: stimulation of [35S]-GTP's binding. In kind it is biochemical.
Procedure: as §1
Data set [4] can be described thus: Release of oxycodone from prodrugs without pancreatin. The following applies: 37° C., pH 7.4, no pancreatin.
The test system of data set [5] is Pancreatin. In words: Effect of pancreatin on release of oxycodone from prodrugs. The following applies: in words.

We go through six molecules from patent US20040204434A1, “Compounds and methods for lowering the abuse potential and extending the duration of action of a drug” (Controlled Chemicals Inc., priority 2003, published 2004).

T1 sequence (P33535 whole entry): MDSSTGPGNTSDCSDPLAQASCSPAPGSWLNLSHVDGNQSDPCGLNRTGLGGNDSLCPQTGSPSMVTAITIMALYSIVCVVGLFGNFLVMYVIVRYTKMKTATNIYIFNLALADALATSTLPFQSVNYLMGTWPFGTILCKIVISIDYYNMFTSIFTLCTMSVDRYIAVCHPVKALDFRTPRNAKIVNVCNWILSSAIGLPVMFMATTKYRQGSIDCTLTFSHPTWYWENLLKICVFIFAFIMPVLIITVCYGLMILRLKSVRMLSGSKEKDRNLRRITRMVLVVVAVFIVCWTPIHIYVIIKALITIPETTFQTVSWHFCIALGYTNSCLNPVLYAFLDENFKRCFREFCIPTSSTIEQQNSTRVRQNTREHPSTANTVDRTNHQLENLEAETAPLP

On to `COc1ccc2c3c1OC1C(OC(C)=O)=CCC4(O)C(C2)N(C)CCC314` (stereo not shown) [6-enolacetate], for which the half-life for hydrolysis in data set [1] was approximately 96 h. For the molecule `COc1ccc2c3c1O[C@H]1C(=O)CC[C@@]4(OC(C)=O)[C@@H](C2)N(C)CC[C@]314` [14-acetate ester of oxycodone], in data set [1], the “half-life for the hydrolysis” value was approximately 0.333 h. As usually defined, the EC50 is the concentration giving half of the maximal effect. A low value points to an effect from little substance. Turning to `COc1ccc2c3c1O[C@H]1C(OC(=O)C(CCC(=O)O)NC(=O)OCc4ccccc4)=CC[C@@]4(O)[C@@H](C2)N(C)CC[C@]314` (stereo partly drawn) [Compound 1, 2-(benzyloxycarbonylamino)-pentanedioic acid 1-(3-methoxy-14-hydroxy-6,7-didehydro-4,5α-epoxy-17-methylmorphinan-6-yl) ester], the “affinity for the μ receptor relative to oxycodone” value in data set [2] is “substantially lower”. Besides, it took 3.38 ± 0.29 µM to reach a half-maximal effect in data set [3] (EC50).

As to “poly(ethylene glycol), Mr 2,000, methyl ether, N-carbonylglutamic acid 1-(3-methoxy-14-hydroxy-6,7-didehydro-4,5α-epoxy-17-methylmorphinan-6-yl) ester [Compound 4]”, the “Half-Life for Hydrolysis, no pancreatin” value in data set [4] was 5.5 h. For the same molecule, the “Effect of pancreatic enzymes on liberation of oxycodone from prodrug” value (“Effect of pancreatic enzymes” below) in data set [5] is given as “do not markedly effect”.

Regarding “poly(ethylene glycol), Mr 2,000, methyl ether, carbonylimidodiacetic acid mono-(3-methoxy-14-hydroxy-6,7-didehydro-4,5α-epoxy-17-methylmorphinan-6-yl) ester [Compound 5]”, the “Half-Life for Hydrolysis, no pancreatin” value in data set [4] stood at 11 h. Further, the “Effect of pancreatic enzymes” value in data set [5] is reported as “do not markedly effect”. On to “poly(ethylene glycol), Mr 2,000, methyl ether, carboxy ((3-methoxy-14-hydroxy-6,7-didehydro-4,5α-epoxy-17-methylmorphinan-6-yl) ester) methyl ether [Compound 8]”, for which the “Half-Life for Hydrolysis, no pancreatin” value in data set [4] is 6.9 h. The “Effect of pancreatic enzymes” value in data set [5] is listed as “markedly enhanced”.
